Measured values published in patent US20240123070A1, “EPITOPE PEPTIDE OF RAS G13D MUTANT AND T CELL RECEPTOR RECOGNIZING RAS G13D MUTANT” (SHANGHAI GENBASE BIOTECHNOLOGY CO., LTD., priority 2021, published 2024).

T1: KRAS G13D (G13D-RT6) peptide on HLA-DQA1*05:01 / HLA-DQB1*03:01 (human)
T1 chain: YKLVVVGAGDVGKSAL


Target: T1, KRAS G13D (G13D-RT6) peptide on …
Test: NFAT-luciferase; Jurkat-NFAT-Luc with the TCR and Lovo-DPA0301:DPB0501 cells loaded with G13D-RT6; against wild-type B8.2.4 TCR; full-length, on cells
Conditions: chains Valpha:Vbeta

TCR Mut RLU/WT RLU	Binder
0.86	B8.2.4 TCR mutant β95Q-A (protein) chain 1: AQKITQTQPGMFVQEKEAVTLDCTYDTSDPSYGLFWYKQPSSGEMIFLIYQGSYDQQNATEGRYSLNFQKARKSANLVISASQLGDSAMYFCAMRERTGTASKLTFGTGTRLQVTL chain 2: DVKVTQSSRYLVKRTGEKVFLECVQDMDHENMFWYRQDPGLGLRLIYFSYDVKMKEKGDIPEGYSVSREKKERFSLILESASTNQTSMYLCASSATVPPQHFGDGTRLSIL
0.99	B8.2.4 TCR mutant β95Q-M (protein) chain 1: AQKITQTQPGMFVQEKEAVTLDCTYDTSDPSYGLFWYKQPSSGEMIFLIYQGSYDQQNATEGRYSLNFQKARKSANLVISASQLGDSAMYFCAMRERTGTASKLTFGTGTRLQVTL chain 2: DVKVTQSSRYLVKRTGEKVFLECVQDMDHENMFWYRQDPGLGLRLIYFSYDVKMKEKGDIPEGYSVSREKKERFSLILESASTNQTSMYLCASSMTVPPQHFGDGTRLSIL
0.98	B8.2.4 TCR mutant β97V-T (protein) chain 1: AQKITQTQPGMFVQEKEAVTLDCTYDTSDPSYGLFWYKQPSSGEMIFLIYQGSYDQQNATEGRYSLNFQKARKSANLVISASQLGDSAMYFCAMRERTGTASKLTFGTGTRLQVTL chain 2: DVKVTQSSRYLVKRTGEKVFLECVQDMDHENMFWYRQDPGLGLRLIYFSYDVKMKEKGDIPEGYSVSREKKERFSLILESASTNQTSMYLCASSQTTPPQHFGDGTRLSIL
1.14	B8.2.4 TCR mutant β95Q-C (protein) chain 1: AQKITQTQPGMFVQEKEAVTLDCTYDTSDPSYGLFWYKQPSSGEMIFLIYQGSYDQQNATEGRYSLNFQKARKSANLVISASQLGDSAMYFCAMRERTGTASKLTFGTGTRLQVTL chain 2: DVKVTQSSRYLVKRTGEKVFLECVQDMDHENMFWYRQDPGLGLRLIYFSYDVKMKEKGDIPEGYSVSREKKERFSLILESASTNQTSMYLCASSCTVPPQHFGDGTRLSIL
1.11	B8.2.4 TCR mutant β98P-C (protein) chain 1: AQKITQTQPGMFVQEKEAVTLDCTYDTSDPSYGLFWYKQPSSGEMIFLIYQGSYDQQNATEGRYSLNFQKARKSANLVISASQLGDSAMYFCAMRERTGTASKLTFGTGTRLQVTL chain 2: DVKVTQSSRYLVKRTGEKVFLECVQDMDHENMFWYRQDPGLGLRLIYFSYDVKMKEKGDIPEGYSVSREKKERFSLILESASTNQTSMYLCASSQTVCPQHFGDGTRLSIL
0.74	B8.2.4 TCR mutant β95Q-I (protein) chain 1: AQKITQTQPGMFVQEKEAVTLDCTYDTSDPSYGLFWYKQPSSGEMIFLIYQGSYDQQNATEGRYSLNFQKARKSANLVISASQLGDSAMYFCAMRERTGTASKLTFGTGTRLQVTL chain 2: DVKVTQSSRYLVKRTGEKVFLECVQDMDHENMFWYRQDPGLGLRLIYFSYDVKMKEKGDIPEGYSVSREKKERFSLILESASTNQTSMYLCASSITVPPQHFGDGTRLSIL
0.8	B8.2.4 TCR mutant β98P-D (protein) chain 1: AQKITQTQPGMFVQEKEAVTLDCTYDTSDPSYGLFWYKQPSSGEMIFLIYQGSYDQQNATEGRYSLNFQKARKSANLVISASQLGDSAMYFCAMRERTGTASKLTFGTGTRLQVTL chain 2: DVKVTQSSRYLVKRTGEKVFLECVQDMDHENMFWYRQDPGLGLRLIYFSYDVKMKEKGDIPEGYSVSREKKERFSLILESASTNQTSMYLCASSQTVDPQHFGDGTRLSIL
0.6	B8.2.4 TCR mutant β95Q-D (protein) chain 1: AQKITQTQPGMFVQEKEAVTLDCTYDTSDPSYGLFWYKQPSSGEMIFLIYQGSYDQQNATEGRYSLNFQKARKSANLVISASQLGDSAMYFCAMRERTGTASKLTFGTGTRLQVTL chain 2: DVKVTQSSRYLVKRTGEKVFLECVQDMDHENMFWYRQDPGLGLRLIYFSYDVKMKEKGDIPEGYSVSREKKERFSLILESASTNQTSMYLCASSDTVPPQHFGDGTRLSIL
0.61	B8.2.4 TCR mutant β97V-I (protein) chain 1: AQKITQTQPGMFVQEKEAVTLDCTYDTSDPSYGLFWYKQPSSGEMIFLIYQGSYDQQNATEGRYSLNFQKARKSANLVISASQLGDSAMYFCAMRERTGTASKLTFGTGTRLQVTL chain 2: DVKVTQSSRYLVKRTGEKVFLECVQDMDHENMFWYRQDPGLGLRLIYFSYDVKMKEKGDIPEGYSVSREKKERFSLILESASTNQTSMYLCASSQTIPPQHFGDGTRLSIL
0.81	B8.2.4 TCR mutant β95Q-E (protein) chain 1: AQKITQTQPGMFVQEKEAVTLDCTYDTSDPSYGLFWYKQPSSGEMIFLIYQGSYDQQNATEGRYSLNFQKARKSANLVISASQLGDSAMYFCAMRERTGTASKLTFGTGTRLQVTL chain 2: DVKVTQSSRYLVKRTGEKVFLECVQDMDHENMFWYRQDPGLGLRLIYFSYDVKMKEKGDIPEGYSVSREKKERFSLILESASTNQTSMYLCASSETVPPQHFGDGTRLSIL
0.78	B8.2.4 TCR mutant β97V-S (protein) chain 1: AQKITQTQPGMFVQEKEAVTLDCTYDTSDPSYGLFWYKQPSSGEMIFLIYQGSYDQQNATEGRYSLNFQKARKSANLVISASQLGDSAMYFCAMRERTGTASKLTFGTGTRLQVTL chain 2: DVKVTQSSRYLVKRTGEKVFLECVQDMDHENMFWYRQDPGLGLRLIYFSYDVKMKEKGDIPEGYSVSREKKERFSLILESASTNQTSMYLCASSQTSPPQHFGDGTRLSIL
0.73	B8.2.4 TCR mutant β98P-G (protein) chain 1: AQKITQTQPGMFVQEKEAVTLDCTYDTSDPSYGLFWYKQPSSGEMIFLIYQGSYDQQNATEGRYSLNFQKARKSANLVISASQLGDSAMYFCAMRERTGTASKLTFGTGTRLQVTL chain 2: DVKVTQSSRYLVKRTGEKVFLECVQDMDHENMFWYRQDPGLGLRLIYFSYDVKMKEKGDIPEGYSVSREKKERFSLILESASTNQTSMYLCASSQTVGPQHFGDGTRLSIL
0.96	B8.2.4 TCR mutant β98P-F (protein) chain 1: AQKITQTQPGMFVQEKEAVTLDCTYDTSDPSYGLFWYKQPSSGEMIFLIYQGSYDQQNATEGRYSLNFQKARKSANLVISASQLGDSAMYFCAMRERTGTASKLTFGTGTRLQVTL chain 2: DVKVTQSSRYLVKRTGEKVFLECVQDMDHENMFWYRQDPGLGLRLIYFSYDVKMKEKGDIPEGYSVSREKKERFSLILESASTNQTSMYLCASSQTVFPQHFGDGTRLSIL
0.92	B8.2.4 TCR mutant β95Q-Y (protein) chain 1: AQKITQTQPGMFVQEKEAVTLDCTYDTSDPSYGLFWYKQPSSGEMIFLIYQGSYDQQNATEGRYSLNFQKARKSANLVISASQLGDSAMYFCAMRERTGTASKLTFGTGTRLQVTL chain 2: DVKVTQSSRYLVKRTGEKVFLECVQDMDHENMFWYRQDPGLGLRLIYFSYDVKMKEKGDIPEGYSVSREKKERFSLILESASTNQTSMYLCASSYTVPPQHFGDGTRLSIL
0.68	B8.2.4 TCR mutant β95Q-H (protein) chain 1: AQKITQTQPGMFVQEKEAVTLDCTYDTSDPSYGLFWYKQPSSGEMIFLIYQGSYDQQNATEGRYSLNFQKARKSANLVISASQLGDSAMYFCAMRERTGTASKLTFGTGTRLQVTL chain 2: DVKVTQSSRYLVKRTGEKVFLECVQDMDHENMFWYRQDPGLGLRLIYFSYDVKMKEKGDIPEGYSVSREKKERFSLILESASTNQTSMYLCASSHTVPPQHFGDGTRLSIL
0.76	B8.2.4 TCR mutant β95Q-V (protein) chain 1: AQKITQTQPGMFVQEKEAVTLDCTYDTSDPSYGLFWYKQPSSGEMIFLIYQGSYDQQNATEGRYSLNFQKARKSANLVISASQLGDSAMYFCAMRERTGTASKLTFGTGTRLQVTL chain 2: DVKVTQSSRYLVKRTGEKVFLECVQDMDHENMFWYRQDPGLGLRLIYFSYDVKMKEKGDIPEGYSVSREKKERFSLILESASTNQTSMYLCASSVTVPPQHFGDGTRLSIL
1.03	B8.2.4 TCR mutant β95Q-G (protein) chain 1: AQKITQTQPGMFVQEKEAVTLDCTYDTSDPSYGLFWYKQPSSGEMIFLIYQGSYDQQNATEGRYSLNFQKARKSANLVISASQLGDSAMYFCAMRERTGTASKLTFGTGTRLQVTL chain 2: DVKVTQSSRYLVKRTGEKVFLECVQDMDHENMFWYRQDPGLGLRLIYFSYDVKMKEKGDIPEGYSVSREKKERFSLILESASTNQTSMYLCASSGTVPPQHFGDGTRLSIL
0.59	B8.2.4 TCR mutant β95Q-T (protein) chain 1: AQKITQTQPGMFVQEKEAVTLDCTYDTSDPSYGLFWYKQPSSGEMIFLIYQGSYDQQNATEGRYSLNFQKARKSANLVISASQLGDSAMYFCAMRERTGTASKLTFGTGTRLQVTL chain 2: DVKVTQSSRYLVKRTGEKVFLECVQDMDHENMFWYRQDPGLGLRLIYFSYDVKMKEKGDIPEGYSVSREKKERFSLILESASTNQTSMYLCASSTTVPPQHFGDGTRLSIL
0.6	B8.2.4 TCR mutant β95Q-N (protein) chain 1: AQKITQTQPGMFVQEKEAVTLDCTYDTSDPSYGLFWYKQPSSGEMIFLIYQGSYDQQNATEGRYSLNFQKARKSANLVISASQLGDSAMYFCAMRERTGTASKLTFGTGTRLQVTL chain 2: DVKVTQSSRYLVKRTGEKVFLECVQDMDHENMFWYRQDPGLGLRLIYFSYDVKMKEKGDIPEGYSVSREKKERFSLILESASTNQTSMYLCASSNTVPPQHFGDGTRLSIL
0.6	B8.2.4 TCR mutant β98P-H (protein) chain 1: AQKITQTQPGMFVQEKEAVTLDCTYDTSDPSYGLFWYKQPSSGEMIFLIYQGSYDQQNATEGRYSLNFQKARKSANLVISASQLGDSAMYFCAMRERTGTASKLTFGTGTRLQVTL chain 2: DVKVTQSSRYLVKRTGEKVFLECVQDMDHENMFWYRQDPGLGLRLIYFSYDVKMKEKGDIPEGYSVSREKKERFSLILESASTNQTSMYLCASSQTVHPQHFGDGTRLSIL
0.88	B8.2.4 TCR mutant β95Q-W (protein) chain 1: AQKITQTQPGMFVQEKEAVTLDCTYDTSDPSYGLFWYKQPSSGEMIFLIYQGSYDQQNATEGRYSLNFQKARKSANLVISASQLGDSAMYFCAMRERTGTASKLTFGTGTRLQVTL chain 2: DVKVTQSSRYLVKRTGEKVFLECVQDMDHENMFWYRQDPGLGLRLIYFSYDVKMKEKGDIPEGYSVSREKKERFSLILESASTNQTSMYLCASSWTVPPQHFGDGTRLSIL
